Here are results for 15 substances from patent publication US20200024330A1.

What all share (test): cell-based or functional assay
The target in test [1] is HIV-1 92RW008 envelope glycoprotein (Env) (HIV-1).
In test [2] the target is HIV-1 92RW024 envelope glycoprotein (Env) on pseudovirus (HIV-1).
The target of test [3] is HIV-1 Env of isolate MGRM-G-027 (clade G pseudovirus) (HIV-1).
The target of test [4] is HIV-1 Env of isolate MGRM-G-027 (subtype G) (HIV-1).
Test [5] addresses HIV-1 MGRM-A-003 envelope glycoprotein (Env) (HIV-1).
Test [6] addresses HIV-1 MGRM-A-010 envelope glycoprotein (Env) on pseudovirus (HIV-1).
The target of test [7] is HIV-1 MGRM-C-017 Env (HIV-1).
Test [8] has as its target HIV-1 MGRM-F1-020 Env (pseudovirus) (HIV-1).
In test [9] the target is HIV-1 6535.3 Env (pseudovirus) (HIV-1).
Test [10] has as its target HIV-1 Env of isolate 97ZA012 (pseudovirus) (HIV-1 isolate 97ZA012, subtype C).
Test [11] addresses HIV-1 Env of isolate MG RM-AG-012 (HIV-1).
Test [12] has as its target HIV-1 Env of isolate MG RM-D-014 (subtype D) (HIV-1).
Test [13] has as its target HIV-1 Env of isolate MG RM-D-021 (subtype D) (HIV-1).
Test [14] has as its target HIV-1 Env of isolate MGRM-C-024 (pseudovirus) (HIV-1 isolate MGRM-C-024, subtype C).
Test [15] has as its target HIV-1 Env of isolate MGRM-F1-015 (HIV-1).
Test [16] concerns the target HIV-1 Env of isolate MGRM-F1-020 (HIV-1).
The target of test [17] is HIV-1 MGRM-Chronic-B-002 Env (pseudovirus) (HIV-1).
Test [18] addresses HIV-1 MGRM-Chronic-B-018 Env (pseudovirus) (HIV-1).
Test [19] concerns the target HIV-1 Env of isolate MGRM-F1-014 (HIV-1).
In test [20] the target is HIV-1 JR-CSF Env D185A (HIV-1 (isolate JR-CSF)) (UniProt P20871).
The target in test [21] is HIV-1 JR-CSF Env N134A (HIV-1 (isolate JR-CSF)) (UniProt P20871).
The target in test [22] is HIV-1 JR-CSF Env N478A (HIV-1 (isolate JR-CSF)) (UniProt P20871).
The target in test [23] is HIV-1 JR-CSF Env T162A (HIV-1 (isolate JR-CSF)) (UniProt P20871).
The target of test [24] is HIV-1 Env of isolate 92UG037 (HIV-1).
Test [25] deals with HIV-1 Env of isolate 92WR021 (HIV-1).
Test [26] has as its target HIV-1 Env of isolate 92WR024 (HIV-1).
The target in test [27] is HIV-1 Env of isolate 92UG001 (HIV-1).
Test [28] addresses HIV-1 Env of isolate SC422661.8 (HIV-1).

What is called IC50 is the midpoint of a concentration-inhibition curve. Lower therefore signals inhibition by little substance. In the case of 1496_C09 (PG9) (TCN-109) (antibody), the IC50 (µg/ml), pseudovirus neutralization in test [1] stood at 0.01 µg/mL; in test [2] it was 0.18 µg/mL; in test [3], 0.01 µg/mL; in test [5], 0.65 µg/mL; in test [8] it was 4.55 µg/mL. The neutralization IC50 in [4] was 0.007 µg/mL. In test [6], this substance yielded an IC50 (ug/ml), neutralizing activity of 0.0375 µg/mL. Further, the IC50 neutralization in [6] came out at 0.0375 µg/mL. The substance also returned an IC80, neutralization in test [6] of 0.121 µg/mL. In [6], this substance registered an IC90, neutralization of 0.242 µg/mL. For the same substance, the IC95, neutralization in test [6] is 0.456 µg/mL. Moreover, the IC50 in [7] is 1.52 µg/mL.

For 4838_L06 (PGT-121) (antibody), the IC50, pseudovirus neutralization in test [9] is 0.005 µg/mL; in test [17], 0.386 µg/mL; in [18] it was more than 50 µg/mL. Also, the IC50 (µg/mL) neutralization came out at 0.002 µg/mL in test [10] and 0.052 µg/mL in test [14]. The substance also yielded a neutralization IC50 in [11] of more than 50 µg/mL. Also, the IC50 (µg/mL), pseudovirus neutralization in test [12] came to 0.009 µg/mL; in test [13] it was 5.33 µg/mL. The IC50 in test [15] was 28.4 µg/mL; in test [16], 0.167 µg/mL.

For the substance 4858_P08 (PGT-123) (antibody), the IC50, pseudovirus neutralization in test [9] was 0.004 µg/mL; in test [6], 0.492 µg/mL; in test [17], 0.234 µg/mL; in test [18], more than 50 µg/mL. Further, the IC50 (µg/mL) neutralization worked out at 0.002 µg/mL in test [10] and 0.195 µg/mL in test [14]. Also, in [11], the neutralization IC50 was more than 50 µg/mL. In addition, the IC50 (µg/mL), pseudovirus neutralization came out at 0.009 µg/mL in test [12] and 11.1 µg/mL in test [13]. Also, the IC50 in test [19] was 0.111 µg/mL; in test [15] it was more than 50 µg/mL; in test [16], 0.051 µg/mL. For the same substance, the Fold IC50 increase relative to wild-type worked out at 1.9 fold in test [20], 0.4 fold in [21], 0.6 fold in test [22] and 0.7 fold in test [23]. This substance also displayed an IC50 (ug/ml), neutralizing activity in test [6] of 0.492 µg/mL. This substance also had an IC80, pseudovirus neutralization in [6] of 2.79 µg/mL. Further, the IC90 (pseudovirus neutralization) in test [6] came to 6.44 µg/mL. The IC95, pseudovirus neutralization in [6] was more than 10 µg/mL.

Consider 4877_D15 (PGT-122) (antibody), for which the IC50, pseudovirus neutralization is 0.006 µg/mL in test [9], 1.8 µg/mL in test [17] and more than 50 µg/mL in [18]. The IC50 (µg/mL) neutralization in test [10] turned out to be 0.004 µg/mL; in [14] it was 0.102 µg/mL. For the same substance, the neutralization IC50 in test [11] is more than 50 µg/mL. For the same substance, the IC50 (µg/mL), pseudovirus neutralization was determined as 0.012 µg/mL in test [12] and 11.7 µg/mL in [13]. Besides, the IC50 in [19] was determined as 0.195 µg/mL; in [15], 31.4 µg/mL; in test [16], 0.321 µg/mL. The same substance registered an IC50 (ug/ml), neutralizing activity in test [6] of 1.68 µg/mL.

For 5123_A06 (PGT-125) (antibody), the IC50, pseudovirus neutralization in test [9] is 0.01 µg/mL; in [17], 0.064 µg/mL; in test [18], more than 50 µg/mL. In addition, the IC50 (µg/mL) neutralization in [10] was 2.46 µg/mL; in test [14], more than 50 µg/mL. For the same substance, the neutralization IC50 was more than 50 µg/mL in [11] and 0.0055 µg/mL in test [6]. Further, the IC50 (µg/mL), pseudovirus neutralization was more than 50 µg/mL in test [12] and 0.015 µg/mL in [13]. The half-maximal inhibitory concentration (IC50) in test [19], in test [15] and in test [16] was more than 50 µg/mL throughout. The Fold IC50 increase relative to wild-type in test [20] amounted to 0.6 fold; in [21] it was 0.5 fold; in test [22], 1.5 fold; in test [23] it was 0.5 fold. For the same substance, the IC50 (ug/ml), neutralizing activity in test [6] amounted to 0.0025 µg/mL. The substance further yielded a neutralization IC80 in test [6] of 0.024 µg/mL. In addition, the neutralization IC90 in test [6] was found to be 0.0575 µg/mL. In test [6], the neutralization IC95 was 0.131 µg/mL.

Regarding 5141_B17 (PGT-126) (antibody), the IC50, pseudovirus neutralization in [9] was determined as 0.022 µg/mL; in test [17] it was 0.078 µg/mL; in [18], 0.052 µg/mL. The values for the IC50 (µg/mL) neutralization in [10] and in [14] were 0.042 µg/mL and more than 50 µg/mL, respectively. The substance further returned a neutralization IC50 in test [11] of more than 50 µg/mL. The IC50 (µg/mL), pseudovirus neutralization worked out at 0.03 µg/mL in test [12] and 0.047 µg/mL in test [13]. Moreover, the IC50 in [19], in test [15] and in [16] was more than 50 µg/mL each time. For the same substance, the Fold IC50 increase relative to wild-type was found to be 1 fold in [20], 0.6 fold in test [21], 1 fold in test [22] and 0.6 fold in test [23]. This substance registered an IC50 (ug/ml), neutralizing activity in test [6] of 0.0033 µg/mL.

Regarding 5145_B14 (PGT-127) (antibody), the IC50, pseudovirus neutralization in test [9] is 0.02 µg/mL; in test [17], 0.279 µg/mL; in test [18], 1.9 µg/mL. Also, the IC50 (µg/mL) neutralization in test [10] and in [14] was more than 50 µg/mL in each case. Also, in test [11], the neutralization IC50 is more than 50 µg/mL. For the same substance, the IC50 (µg/mL), pseudovirus neutralization in [12] was determined as 0.393 µg/mL; in [13], 0.056 µg/mL. For the same substance, the 50% inhibitory concentration (IC50) in [19], in [15] and in test [16] was more than 50 µg/mL throughout. For the same substance, the Fold IC50 increase relative to wild-type in test [20] amounted to 2 fold; in test [21], 1 fold; in [22], 1.2 fold; in test [23], 1.1 fold.

Take PGT-121 (antibody): the IC50 (µg/mL), pseudovirus neutralization in [24] was 0.031 µg/mL; in [25] it was 0.009 µg/mL; in test [26], more than 50 µg/mL.

For the substance PGT-122 (antibody), the values for the IC50 (µg/mL), pseudovirus neutralization in test [24], in [25] and in test [26] were 0.068 µg/mL, 0.021 µg/mL and more than 50 µg/mL, respectively.

Consider PGT-141 (4964_G22; 4993_K13) (antibody), for which the neutralization IC50 in test [4] is more than 50 µg/mL.

In turn, PGT-142 (4995_E20) (antibody) displayed a neutralization IC50 in [4] of more than 50 µg/mL.

For PGT-143 (4980_N08) (antibody), the neutralization IC50 in test [4] is more than 50 µg/mL.

On to PGT-144 (4970_K22) (antibody), for which, in test [4], the neutralization IC50 is more than 50 µg/mL.

Take PGV04 (antibody): in test [27], the IC50, pseudovirus neutralization is 0.553 µg/mL. Also, the IC50 in test [24] came to 0.145 µg/mL. Besides, the IC50 (µg/mL), pseudovirus neutralization in test [19] stood at 0.02 µg/mL; in [15], 0.179 µg/mL. Moreover, the neutralization IC50 in [4] worked out at 0.125 µg/mL.

On to VRC01 (antibody), for which the figures for the IC50, pseudovirus neutralization in [19], in test [15] and in [16] were 0.056 µg/mL, 0.387 µg/mL and 1.89 µg/mL, respectively. The neutralization IC50 in test [4] was found to be 0.36 µg/mL; in test [28] it was 0.179 µg/mL.
